Our source for the self-cleavage values is the RNAGym collection of RNA variant scans (doi:10.7554/elife.80360).

B1: Hairpin Ribozyme (parent)
chain: GUCCUCUUUCACGUGCGCGUGAAAGAGAGAAGUGAACCAGAGAAACACACGUUGUGGUAUAUUACCUGGUA

Variants of B1 are the subject of the data set. The data set is described as follows: self-cleavage, relative activity (ratio to wild type); higher = more cleavage; co-transcriptional.
Turning to C4U A11C, the self-cleavage stood at 0.191.
Under U53G G56A stands 0.195; under U14C A30G, 0.116; under G32C A47U, 0.0919.
The result for A11U G57C reads 0.182; that for A24U U52C, 0.723; that for U7G A26G, 0.821.
Under A36C G69A stands 0.24.
Take A11G G56U: the self-cleavage was found to be 0.105.
C65A G69A: the self-cleavage is 0.169.
Under A44C G51U stands 0.114; under A44C A71U, 0.152.
Under G42U U62C stands 0.149.
The result for U55A A59G reads 0.163.
Regarding G17C A31G, the self-cleavage was 0.425.
The result for G54A U60G reads 0.204.
As to A39U C66A, the self-cleavage is 0.121.
Under U2G A39G stands 0.179.
The result for C12U G19A reads 1.02.
For the variant C46A U63C, the self-cleavage was determined as 0.225.
For the variant G1C A24C, the self-cleavage was 0.32.
Under U2A U67G stands 0.158; under U8G A64C, 0.0997; under G13U A23G, 0.675.
For the variant G27C U33G, the self-cleavage turned out to be 0.0854.
U14G C18A: the self-cleavage is 0.941.
Under C3U G32A stands 0.08; under G68A U70A, 0.156.
Regarding U7C U53C, the self-cleavage is 0.677.
As to C3A G27U, the self-cleavage is 0.15.
Under A11U C37A stands 0.228; under U2C A31U, 0.25; under A43U A71U, 0.179.
On to A11G G29A, for which the self-cleavage stood at 0.101.
For the variant U53G U58A, the self-cleavage was 0.394.
Regarding A44C U55G, the self-cleavage was 0.102.
Regarding C37A A71U, the self-cleavage stood at 0.284.
In the case of U58G U62A, the self-cleavage amounted to 0.232.
The result for C18G C66A reads 0.194; that for A22U A41G, 0.776; that for U20C C37G, 0.342.
Turning to C6U U70G, the self-cleavage is 0.588.
The result for A59U C66U reads 0.191; that for G32A A39C, 0.0881; that for A43C U62A, 0.12.
With G1U A59C, the self-cleavage turned out to be 0.183.
The result for G13A C46G reads 0.0618; that for C10A C18A, 0.708; that for U33C A47U, 0.0811.
The result for U7G U62G reads 0.223; that for A44U U63G, 0.209; that for G29C U67G, 0.12.
The result for C4A A23G reads 0.209; that for G27U U60A, 0.243.
As to A24G U33G, the self-cleavage amounted to 0.0457.
For C6G U63G, the self-cleavage turned out to be 0.19.
On to G34A A49U, for which the self-cleavage is 0.174.
Under A26G A64U stands 0.271; under C10G C48U, 0.168.
As for C10G A43C, the self-cleavage is 0.128.
The result for G1A C65G reads 0.0867.
In the case of G32U A45G, the self-cleavage stood at 0.0481.
Under G21C G32U stands 0.0815; under C3G A64C, 0.129.
Under G15C C50G stands 0.184.
Consider G21A G29U, for which the self-cleavage is 0.186.
On to A30U U53A, for which the self-cleavage was found to be 0.138.
The result for C18A A30G reads 0.115.
Under U8C A11U stands 0.252; under A11C A49C, 0.192.
Take G57A U63G: the self-cleavage came to 0.182.
Turning to G57A U63C, the self-cleavage was 0.151.
With C12A G21C, the self-cleavage stood at 0.808.
Under A26C U52A stands 0.599.
Under C12U A36C stands 0.674; under A43C C48U, 0.16.
Under C4A C12A stands 0.187; under U5G G57C, 0.0591; under A45G G51C, 0.176.
In the case of C48G U53G, the self-cleavage came out at 0.128.
The result for G19A A44G reads 0.137; that for G29C U53C, 0.252; that for C12G U55C, 0.216.
U20C C46U: the self-cleavage was found to be 0.103.
For the variant C4U U63A, the self-cleavage was 0.157.
Turning to C18G A35G, the self-cleavage turned out to be 1.24.
Under G13A C50A stands 0.284; under U9C G17A, 0.805.
Under C10G A64U stands 0.199; under G32A U58G, 0.16; under U5C G27A, 0.247.
For U55G A71G, the self-cleavage is 0.241.
For the variant C46U C66A, the self-cleavage amounted to 0.113.
Under A49U U62C stands 0.196; under A31U G68C, 0.175; under G13U C65A, 0.845.
Under G1C G68C stands 0.379.
Under U67A G69A stands 0.116; under A26C U67C, 0.21.
Take A23G U53C: the self-cleavage is 0.995.
The result for G56C U60A reads 0.106; that for A43G U63C, 0.156.
As for A36U U55A, the self-cleavage is 0.161.
The result for A26G U63C reads 0.225; that for G19C G40U, 0.091.
Under A30G C38G stands 0.149; under G1A A39C, 0.138.
The result for A30U G32U reads 0.0889; that for A24U A39G, 0.34.
Regarding U52G A59C, the self-cleavage was determined as 0.206.
As for A36C A47G, the self-cleavage was 0.0823.
G19A G54C: the self-cleavage is 0.403.
For the variant G40A A49U, the self-cleavage turned out to be 0.0787.
The result for A36U C46A reads 0.0951; that for G25A A44C, 0.139; that for A23C U53C, 0.702.
The result for A28U U63A reads 0.128.
Under C6G A71U stands 0.409; under U14A G56A, 0.0617.
As to C18G C46G, the self-cleavage worked out at 0.0987.
Under G34C A71U stands 1.27; under A39C U67A, 0.272; under A36C A59G, 0.203.
As to C12U U14C, the self-cleavage was 1.05.
The result for C4A C65G reads 0.179.
C46A A47U: the self-cleavage worked out at 0.199.
Under G17A U67A stands 0.255; under G15C A44G, 0.146; under G19A U62G, 0.103.
Under A24C A36G stands 0.928; under G29A G56U, 0.111.
Regarding G27C U67G, the self-cleavage was 0.0952.
Under G13U G17C stands 0.494; under C3A U53A, 0.662.
On to A43G U60A, for which the self-cleavage stood at 0.202.
A43G U60G: the self-cleavage was 0.0362.
The result for A22U G34A reads 1.24; that for C37A G42C, 0.16; that for G32A C50A, 0.168.
The result for A30C U67C reads 0.0679; that for C18U A44U, 0.15; that for U9G C10G, 0.375.
With G13U G51A, the self-cleavage came to 0.745.
As to A41U A47G, the self-cleavage stood at 0.207.
Under G54C U70A stands 0.216.
The result for A36U G40A reads 0.296.
The result for U5G A64G reads 0.177; that for G42C G56A, 0.155; that for U5G A45U, 0.0709.
Consider A24C G27A, for which the self-cleavage worked out at 0.341.
Take U52G U62G: the self-cleavage was 0.0994.
The result for C50G U63G reads 0.0983; that for U33A C66G, 0.101; that for G57C A59C, 0.183.
The result for G17A U63A reads 0.19.
The result for U7A G69U reads 0.271.
On to U5A G69U, for which the self-cleavage was determined as 0.115.
Under U9C G29U stands 0.179; under U8A G40C, 0.156; under C16A G21C, 0.605.
The result for U2G A26U reads 0.238.
Under U2G A26C stands 0.153; under G1A G54A, 0.191.
Regarding G1U A41U, the self-cleavage is 0.0959.
Take U60C G68A: the self-cleavage was 0.26.
The result for G27C G56A reads 0.0609; that for U14G G34A, 1.05.
